Values quoted from earlier work as cited in patent US20060024387A1, “Methods and compositions for increasing milk production in animals” (priority 2004, published 2006).

Conditions: injection

B1: BST: Hormone injected to increase milk production in lactating cows (protein, UniProt P01246 27-217, looked up)
Somatotropin: AFPAMSLSGLFANAVLRAQHLHQLAADTFKEFERTYIPEGQRYSIQNTQVAFCFSETIPAPTGKNEAQQKSDLELLRISLLLIQSWLGPLQFLSRVFTNSLVFGTSDRVYEKLKDLEEGILALMRELEDGTPRAGQILKQTYDKFDTNMRSDDALLKNYGLLSCFRKDLHKTETYLRVMKCRRFGEASCAF
- effect on milk production: increase milk production
